Key:
Alcadein β = test system: T1, Alcadein β
T1 sequence: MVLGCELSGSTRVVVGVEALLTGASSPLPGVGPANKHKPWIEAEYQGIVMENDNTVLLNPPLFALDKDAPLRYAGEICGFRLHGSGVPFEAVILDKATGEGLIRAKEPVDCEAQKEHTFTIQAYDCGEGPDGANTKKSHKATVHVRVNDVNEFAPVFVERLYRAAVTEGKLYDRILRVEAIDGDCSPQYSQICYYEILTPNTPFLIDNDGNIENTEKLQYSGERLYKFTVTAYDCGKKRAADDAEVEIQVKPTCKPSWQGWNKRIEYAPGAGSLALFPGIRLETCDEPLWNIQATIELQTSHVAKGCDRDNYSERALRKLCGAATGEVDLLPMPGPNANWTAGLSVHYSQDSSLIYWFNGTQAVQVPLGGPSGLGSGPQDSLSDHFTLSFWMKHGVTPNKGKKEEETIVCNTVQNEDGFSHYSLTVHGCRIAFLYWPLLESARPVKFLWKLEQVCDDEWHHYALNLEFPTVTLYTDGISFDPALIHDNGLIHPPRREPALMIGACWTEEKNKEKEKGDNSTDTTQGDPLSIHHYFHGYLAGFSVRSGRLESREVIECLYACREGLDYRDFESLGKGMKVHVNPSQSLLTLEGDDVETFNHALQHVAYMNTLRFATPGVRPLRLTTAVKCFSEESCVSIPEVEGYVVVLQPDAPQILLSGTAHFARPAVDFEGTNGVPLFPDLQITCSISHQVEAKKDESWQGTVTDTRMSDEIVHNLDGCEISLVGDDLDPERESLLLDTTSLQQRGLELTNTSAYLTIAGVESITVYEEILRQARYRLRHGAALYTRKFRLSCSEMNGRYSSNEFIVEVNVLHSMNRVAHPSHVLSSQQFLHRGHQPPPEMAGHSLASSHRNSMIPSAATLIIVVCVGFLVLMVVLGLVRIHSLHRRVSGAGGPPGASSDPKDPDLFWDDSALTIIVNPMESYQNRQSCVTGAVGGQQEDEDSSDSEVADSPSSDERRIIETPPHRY

Alcadein γ = test system: T2, Alcadein γ
T2 sequence: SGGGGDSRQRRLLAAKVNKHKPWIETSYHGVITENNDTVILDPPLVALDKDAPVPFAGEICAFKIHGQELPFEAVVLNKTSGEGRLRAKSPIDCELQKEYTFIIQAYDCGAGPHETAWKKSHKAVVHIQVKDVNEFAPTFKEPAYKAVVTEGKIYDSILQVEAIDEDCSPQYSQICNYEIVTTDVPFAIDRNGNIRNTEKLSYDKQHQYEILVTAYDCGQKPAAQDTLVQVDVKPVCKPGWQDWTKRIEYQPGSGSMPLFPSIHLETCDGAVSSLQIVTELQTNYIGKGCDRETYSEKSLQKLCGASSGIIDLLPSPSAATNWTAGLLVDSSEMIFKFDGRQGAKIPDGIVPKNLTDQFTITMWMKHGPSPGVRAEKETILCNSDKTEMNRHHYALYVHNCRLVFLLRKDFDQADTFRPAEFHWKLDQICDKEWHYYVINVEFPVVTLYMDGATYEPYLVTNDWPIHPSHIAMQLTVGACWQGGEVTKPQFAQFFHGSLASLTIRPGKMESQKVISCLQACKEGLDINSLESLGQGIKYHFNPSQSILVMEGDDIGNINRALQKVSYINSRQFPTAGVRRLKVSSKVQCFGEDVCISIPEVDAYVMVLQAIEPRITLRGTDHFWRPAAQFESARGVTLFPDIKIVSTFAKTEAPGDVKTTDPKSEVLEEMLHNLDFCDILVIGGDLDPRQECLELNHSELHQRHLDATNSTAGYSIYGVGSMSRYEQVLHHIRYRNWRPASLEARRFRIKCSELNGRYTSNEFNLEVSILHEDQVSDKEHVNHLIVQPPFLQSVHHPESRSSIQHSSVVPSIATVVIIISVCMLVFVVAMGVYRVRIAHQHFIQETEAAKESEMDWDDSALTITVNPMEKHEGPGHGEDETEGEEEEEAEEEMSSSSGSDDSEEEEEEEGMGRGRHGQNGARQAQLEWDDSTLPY

Alcadein α (human Alcα1) = test system: T3, Alcadein α (human Alcα1)
T3 sequence: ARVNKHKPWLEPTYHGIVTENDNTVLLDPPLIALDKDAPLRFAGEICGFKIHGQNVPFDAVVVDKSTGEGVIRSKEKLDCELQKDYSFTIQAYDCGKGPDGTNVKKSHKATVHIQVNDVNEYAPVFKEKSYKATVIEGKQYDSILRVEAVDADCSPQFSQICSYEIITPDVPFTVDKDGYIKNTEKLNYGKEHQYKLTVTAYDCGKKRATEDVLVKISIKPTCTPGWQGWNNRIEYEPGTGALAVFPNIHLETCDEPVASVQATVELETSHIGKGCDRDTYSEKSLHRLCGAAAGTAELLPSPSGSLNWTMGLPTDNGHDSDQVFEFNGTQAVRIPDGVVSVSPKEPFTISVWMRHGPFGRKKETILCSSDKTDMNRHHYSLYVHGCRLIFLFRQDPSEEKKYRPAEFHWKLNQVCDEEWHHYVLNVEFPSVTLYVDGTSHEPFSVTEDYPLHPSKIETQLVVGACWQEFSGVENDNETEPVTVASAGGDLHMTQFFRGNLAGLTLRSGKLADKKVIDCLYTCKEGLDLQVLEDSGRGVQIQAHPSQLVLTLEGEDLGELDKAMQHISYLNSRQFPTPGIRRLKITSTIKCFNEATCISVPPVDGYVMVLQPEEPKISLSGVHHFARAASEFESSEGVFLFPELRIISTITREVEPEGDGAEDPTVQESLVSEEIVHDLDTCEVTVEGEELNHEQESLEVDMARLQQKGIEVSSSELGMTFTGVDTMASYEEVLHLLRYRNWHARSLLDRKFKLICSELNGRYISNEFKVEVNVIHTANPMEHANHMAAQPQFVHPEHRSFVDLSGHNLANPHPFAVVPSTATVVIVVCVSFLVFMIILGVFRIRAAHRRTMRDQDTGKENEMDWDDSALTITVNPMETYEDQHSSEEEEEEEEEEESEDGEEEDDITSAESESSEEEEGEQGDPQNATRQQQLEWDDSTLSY

Substance: presenilin (endogenous, HEK293 cells)
- fragments containing the C-terminal from incubated membrane fractions, Western blot (Alcadein β): such fragments were not detected in the samples to which the presenilin inhibitor was added
- fragments containing the C-terminal from incubated membrane fractions, Western blot (Alcadein γ): such fragments were not detected in the samples to which the presenilin inhibitor was added
- fragments containing the C-terminal (Alcα-ICD) from incubated membrane fractions, Western blot (Alcadein α (human Alcα1)): such fragments were not detected in the samples to which the presenilin inhibitor was added

Source: patent US20110014635
